Measured values published in publication PMC3500560.

Biological target: His6-tagged SYD-2LH1 (C. elegans) (UniProt Q21049)
Experiment: pull-down

Sequence of His6-tagged SYD-2LH1 (C. elegans) (Q21049 91-217): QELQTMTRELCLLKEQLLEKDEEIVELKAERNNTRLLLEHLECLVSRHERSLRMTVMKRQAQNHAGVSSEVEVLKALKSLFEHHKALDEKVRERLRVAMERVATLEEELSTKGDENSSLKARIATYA

binding relative to SYD-2LH1 (percent): < 10%
Substance: GST-LH1Δ (Δ179–198) (from UniProt Q21049 1-1139) (domain or fragment)
